Experiments:
Test in all cases: EMSA; EMSA; 15 fmol NCP (30 fmol unmodified NCP) per reaction; 5% native PAGE (37.5:1) in 0.4x TBE, 2% glycerol; binding buffer, pH and temperature not given (as in cited work)
[1] = biological target: T1, Ioc4 2KE (Saccharomyces cerevisiae, UniProt Q04213 1-475, K149E;K150E); settings: protein: recombinant; tags: N-terminal 6xHis-MBP; label: Cy5 on sense strand; blunt
T1 sequence: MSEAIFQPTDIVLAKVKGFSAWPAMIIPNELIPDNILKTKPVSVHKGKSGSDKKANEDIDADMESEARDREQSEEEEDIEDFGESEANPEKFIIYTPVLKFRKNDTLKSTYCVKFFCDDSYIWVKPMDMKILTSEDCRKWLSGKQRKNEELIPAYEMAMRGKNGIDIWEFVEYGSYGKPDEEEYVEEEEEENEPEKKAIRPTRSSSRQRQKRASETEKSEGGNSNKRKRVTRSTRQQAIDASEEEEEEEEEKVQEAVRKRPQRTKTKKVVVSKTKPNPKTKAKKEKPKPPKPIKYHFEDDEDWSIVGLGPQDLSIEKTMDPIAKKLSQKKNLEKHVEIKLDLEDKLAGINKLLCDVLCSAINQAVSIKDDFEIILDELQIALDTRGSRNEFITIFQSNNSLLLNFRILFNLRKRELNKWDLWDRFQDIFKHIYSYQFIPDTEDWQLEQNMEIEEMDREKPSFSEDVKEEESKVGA

[2] = biological target: T2, Ioc4 PWWP 2KE (Saccharomyces cerevisiae, UniProt Q04213 1-178, K149E;K150E); settings: protein: recombinant; tags: N-terminal 6xHis; label: Cy5 on sense strand; blunt
T2 sequence: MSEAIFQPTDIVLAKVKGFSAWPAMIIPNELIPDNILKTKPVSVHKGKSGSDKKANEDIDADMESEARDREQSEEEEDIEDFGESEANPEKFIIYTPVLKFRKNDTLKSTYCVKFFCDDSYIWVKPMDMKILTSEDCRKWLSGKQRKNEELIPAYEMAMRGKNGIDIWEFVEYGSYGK

[3] = biological target: T3, Ioc4 dPWWP (Saccharomyces cerevisiae, UniProt Q04213 179-475, del1-178); settings: protein: recombinant; tags: N-terminal 6xHis-MBP; label: Cy5 on sense strand; blunt
T3 sequence: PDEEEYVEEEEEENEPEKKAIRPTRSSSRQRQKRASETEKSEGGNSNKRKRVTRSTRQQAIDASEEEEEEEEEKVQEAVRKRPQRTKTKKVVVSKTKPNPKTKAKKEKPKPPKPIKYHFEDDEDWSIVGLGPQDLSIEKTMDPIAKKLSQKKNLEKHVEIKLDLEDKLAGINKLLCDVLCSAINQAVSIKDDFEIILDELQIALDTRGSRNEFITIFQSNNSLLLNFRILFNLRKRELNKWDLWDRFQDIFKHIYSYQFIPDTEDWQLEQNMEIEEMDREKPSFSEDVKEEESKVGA

[4] = biological target: T4, Ioc4 PWWP 2KA (Saccharomyces cerevisiae, UniProt Q04213 1-178, K149A;K150A); settings: protein: recombinant; label: Cy5 on sense strand; blunt
T4 sequence: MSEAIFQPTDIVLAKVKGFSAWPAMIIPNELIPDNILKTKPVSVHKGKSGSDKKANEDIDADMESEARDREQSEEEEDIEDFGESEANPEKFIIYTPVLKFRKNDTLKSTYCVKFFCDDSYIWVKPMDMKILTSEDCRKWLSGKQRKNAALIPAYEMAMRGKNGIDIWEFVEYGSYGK

B1: dsDNA 30 bp (601-derived EMSA probe) (dsDNA)
DNA 1: GGCAAGGTCGCTGTTCAATACATGCACAGG
DNA 2: CCTGTGCATGTATTGAACAGCGACCTTGCC
Kd [1]: 76 nM
binding result [2]: no binding
Kd [3]: 121 nM
binding result [4]: no binding

Reference: article PMC8934638, “H3K36 methylation and DNA-binding both promote Ioc4 recruitment and Isw1b remodeler function”
